± gives the standard deviation of the averaged measurements.
Test system: ATP
Experiment: switch fluorescence ratio, 500 uM ATP over buffer (Cy3 cluster intensity, sum of 5 cycles each) (fold (ratio)); higher = stronger signal-on switching upon ATP binding; sequences stand for … in TCGTCGGCAGCGTCAGATGTGTATAAGAGACAGTTTTTTTTTTTTTTTTTTTTTTTTT…TC
Conditions: aptamer strand: ATP DNA aptamer (quencher-CACCTGGGGGAGTATTGCGGAGGAAGG + anchor), 100 nM annealed; ATP concentration: 500 uM
Summary of the method: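 Clusters carrying Cy3-labelled switching strands on a modified Illumina MiSeq flow-cell were annealed to 100 nM quencher-labelled ATP aptamer and imaged in selection buffer. They were imaged again after 15 min with 500 uM ATP at 22 °C, over five buffer/ATP cycles with NaOH stripping and re-annealing in between. For each cluster, the fluorescence ratio is the summed Cy3 intensity of the target cycles divided by that of the buffer cycles, averaged per switch-domain sequence. Clusters outside 100-1000 RFU were left out.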
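Further: ATP exposure 15 min at 22 °C before imaging.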

Row | Sequence | switch fluorescence ratio
1 | GCGCCTAGGG | 0.999 ± 0.018
2 | GCGCGATATT | 2.17 ± 0.21
3 | GCGCGCACAT | 1.01 ± 0.048
4 | GCGCGGGGCC | 0.999 ± 0.032
5 | GCGCGGGGTA | 0.997 ± 0.029
6 | GCGCTATATG | 1.16 ± 0.049
7 | GCGCTGTCCG | 0.9959 ± 0.0087
8 | GCGCTTAAGT | 0.986 ± 0.043
9 | GCGGAAAAAG | 0.957 ± 0.011
10 | GCGGAACGTG | 0.997 ± 0.04
11 | GCGGAGAGAT | 1.27 ± 0.33
12 | GCGGAGAGTT | 1.01 ± 0.019
13 | GCGGAGTCGG | 0.996 ± 0.053
14 | GCGGATCAGC | 1.01 ± 0.059
15 | GCGGATTGTG | 1.032 ± 0.0053
16 | GCGGCAAAAT | 1.01 ± 0.041
17 | GCGGCAGGGC | 1.05 ± 0.017
18 | GCGGCATGGT | 0.985 ± 0.0093
19 | GCGGCCGTTG | 0.965 ± 0.064
20 | GCGGCGGCGT | 1.002 ± 0.0023
21 | GCGGCTGTCG | 0.948 ± 0.085
22 | GCGGCTTAAC | 1.02 ± 0.022
23 | GCGGGACTGG | 1.04 ± 0.034
24 | GCGGGATGTC | 0.972 ± 0.02
25 | GCGGGCCCTT | 1.01 ± 0.012

Row | Sequence | switch fluorescence ratio
26 | GCGGGCCGGG | 0.988 ± 0.058
27 | GCGGGCCTTT | 1.015 ± 0.0066
28 | GCGGGGACGC | 0.9982 ± 0.0021
29 | GCGGGGATCT | 1.038 ± 0.0091
30 | GCGGGGATTT | 0.996 ± 0.023
31 | GCGGGGCTTA | 0.98878 ± 0.00093
32 | GCGGGGGAAG | 1 ± 0.02
33 | GCGGGGGACT | 0.997 ± 0.016
34 | GCGGGGGCGG | 1.01 ± 0.018
35 | GCGGGGGGCC | 1.05 ± 0.1
36 | GCGGGGGGCG | 1.01 ± 0.041
37 | GCGGGGGTAG | 1.17 ± 0.25
38 | GCGGGGGTCT | 1.03 ± 0.1
39 | GCGGGGTGTG | 1.016 ± 0.0033
40 | GCGGGTACTG | 1.001 ± 0.0052
41 | GCGGGTAGTG | 1.02 ± 0.028
42 | GCGGGTATTG | 0.964 ± 0.038
43 | GCGGGTCATG | 0.981 ± 0.021
44 | GCGGGTCTGG | 1.03 ± 0.022
45 | GCGGGTTGCT | 1.25 ± 0.39
46 | GCGGGTTGGC | 1.08 ± 0.011
47 | GCGGGTTGGG | 0.984 ± 0.047
48 | GCGGTACTGC | 0.999 ± 0.019
49 | GCGGTAGTTC | 1.02 ± 0.023
50 | GCGGTATGGG | 0.9645 ± 0.0046

Row | Sequence | switch fluorescence ratio
51 | GCGGTCACGG | 0.9974 ± 0.0092
52 | GCGGTGACTG | 0.965 ± 0.018
53 | GCGGTTAGCT | 1.04 ± 0.066
54 | GCGGTTAGGC | 0.968 ± 0.034
55 | GCGGTTGCTG | 0.954 ± 0.04
56 | GCGGTTGTGC | 0.935 ± 0.051
57 | GCGTAAAAAG | 1.03 ± 0.011
58 | GCGTAAAAGG | 0.974 ± 0.034
59 | GCGTAAACGG | 1.06 ± 0.022
60 | GCGTAAAGGA | 1.02 ± 0.015
61 | GCGTAATCCG | 1.02 ± 0.042
62 | GCGTAATGTT | 0.999 ± 0.022
63 | GCGTACGGCG | 0.993 ± 0.054
64 | GCGTAGATGG | 1.006 ± 0.0087
65 | GCGTATGCCC | 1.019 ± 0.0062
66 | GCGTATGGGG | 0.977 ± 0.027
67 | GCGTATTGGC | 1.03 ± 0.013
68 | GCGTCCAGTT | 1.09 ± 0.12
69 | GCGTCCGGGA | 1.21 ± 0.092
70 | GCGTCGCTTT | 0.952 ± 0.046
71 | GCGTCGGTGT | 0.98 ± 0.01
72 | GCGTCTATTG | 0.9987 ± 0.0051
73 | GCGTCTGGGC | 0.992 ± 0.015
74 | GCGTGATAGA | 1.04 ± 0.017
75 | GCGTGCAATG | 1.026 ± 0.0018

Row | Sequence | switch fluorescence ratio
76 | GCGTGCAGGC | 1.03 ± 0.023
77 | GCGTGCGGGC | 1.03 ± 0.043
78 | GCGTGCGGGG | 1.028 ± 0.0098
79 | GCGTGCTGTA | 1.013 ± 0.006
80 | GCGTGGAGGA | 1.05 ± 0.026
81 | GCGTGGGGAA | 1.07 ± 0.036
82 | GCGTGGGTTG | 0.998 ± 0.048
83 | GCGTGTGGGG | 1.02 ± 0.021
84 | GCGTGTGGTC | 1.02 ± 0.039
85 | GCGTGTGGTG | 1.02 ± 0.043
86 | GCGTGTTAGT | 1.023 ± 0.0021
87 | GCGTTAAGCA | 0.968 ± 0.07
88 | GCGTTAGCCA | 1.01 ± 0.022
89 | GCGTTGCAGG | 1.02 ± 0.018
90 | GCGTTTAATA | 0.997 ± 0.014
91 | GCGTTTAGGG | 1.03 ± 0.054
92 | GCGTTTTCGT | 0.972 ± 0.013
93 | GCTAAAATTT | 1 ± 0.029
94 | GCTAATATGG | 0.998 ± 0.044
95 | GCTAATGGTC | 0.977 ± 0.085
96 | GCTAATGTTA | 1.01 ± 0.03
97 | GCTAATGTTT | 0.998 ± 0.031
98 | GCTAATTATA | 1.01 ± 0.015
99 | GCTACCGGTG | 1.1 ± 0.072
100 | GCTAGAAATG | 0.978 ± 0.043

Row | Sequence | switch fluorescence ratio
101 | GCTAGATCAC | 1.02 ± 0.025
102 | GCTAGCCAAA | 0.998 ± 0.011
103 | GCTAGCGGTC | 1.08 ± 0.02
104 | GCTAGCGTGG | 1.02 ± 0.091
105 | GCTAGCTCAG | 1.023 ± 0.008
106 | GCTAGGGCGT | 0.972 ± 0.051
107 | GCTAGGTGAC | 1.1 ± 0.037
108 | GCTAGGTGTA | 1.12 ± 0.043
109 | GCTAGTAAGA | 1.014 ± 0.008
110 | GCTATAAGTG | 0.969 ± 0.027
111 | GCTATATAGT | 1.01 ± 0.011
112 | GCTATATGGC | 1.01 ± 0.024
113 | GCTATCTGGA | 0.998 ± 0.031
114 | GCTATGAACC | 1.0349 ± 0.0008
115 | GCTATGATAA | 0.9933 ± 0.0072
116 | GCTATGCCTA | 0.997 ± 0.023
117 | GCTATGGGAT | 0.995 ± 0.04
118 | GCTATTATAT | 1.02 ± 0.015
119 | GCTATTGGAA | 0.993 ± 0.022
120 | GCTCAAGGTA | 1.006 ± 0.0044
121 | GCTCAATTGG | 1.018 ± 0.006
122 | GCTCAGTAGT | 1.03 ± 0.027
123 | GCTCATAGAT | 0.988 ± 0.013
124 | GCTCATAGCA | 1.02 ± 0.022
125 | GCTCCAGTTA | 1.178 ± 0.0045

Row | Sequence | switch fluorescence ratio
126 | GCTCCCAGGA | 1.92 ± 0.026
127 | GCTCCCGGGG | 1.24 ± 0.12
128 | GCTCCGGGCG | 1.13 ± 0.075
129 | GCTCCTACGA | 1.46 ± 0.046
130 | GCTCGACTTT | 1.02 ± 0.012
131 | GCTCGGATAA | 1.0306 ± 0.00026
132 | GCTCGTGATA | 1.21 ± 0.05
133 | GCTCTATGTA | 1.03 ± 0.014
134 | GCTCTCTTTT | 0.9805 ± 0.0037
135 | GCTCTGAGTA | 1.04 ± 0.073
136 | GCTCTGGCAA | 1.57 ± 0.07
137 | GCTCTTATTA | 0.977 ± 0.021
138 | GCTCTTGGGC | 0.999 ± 0.012
139 | GCTCTTTGAC | 0.987 ± 0.029
140 | GCTCTTTTGG | 0.997 ± 0.019
141 | GCTGAAAGTG | 1 ± 0.057
142 | GCTGAACTTC | 0.9804 ± 0.0089
143 | GCTGAAGGTT | 1.25 ± 0.36
144 | GCTGAATAAG | 0.9815 ± 0.0088
145 | GCTGACTGGT | 0.9939 ± 0.001
146 | GCTGAGGTGA | 1.02 ± 0.042
147 | GCTGATACTT | 1.07 ± 0.02
148 | GCTGATGCGG | 0.999 ± 0.012
149 | GCTGATGGTG | 0.989 ± 0.02
150 | GCTGCGACCA | 1.131 ± 0.0024

Row | Sequence | switch fluorescence ratio
151 | GCTGCTAGTG | 0.97 ± 0.017
152 | GCTGCTGTAT | 1.01 ± 0.022
153 | GCTGGAGGTC | 1.01 ± 0.03
154 | GCTGGCAGAC | 1.23 ± 0.032
155 | GCTGGCTGGC | 1.01 ± 0.11
156 | GCTGGGAATA | 0.9499 ± 0.0028
157 | GCTGGGCACG | 0.954 ± 0.015
158 | GCTGGGCATT | 0.99173 ± 0.00022
159 | GCTGGGCGGC | 0.95 ± 0.014
160 | GCTGGGGGAG | 0.982 ± 0.067
161 | GCTGGGGGGT | 1 ± 0.044
162 | GCTGGGTATT | 0.9435 ± 0.0054
163 | GCTGGTATTG | 1 ± 0.031
164 | GCTGGTGTTG | 1 ± 0.013
165 | GCTGGTTAAA | 0.97834 ± 0.00053
166 | GCTGTAAAGA | 0.983 ± 0.029
167 | GCTGTAAGGG | 0.988 ± 0.028
168 | GCTGTAGGCC | 1.02 ± 0.014
169 | GCTGTAGGTG | 1.039 ± 0.0033
170 | GCTGTAGGTT | 1 ± 0.011
171 | GCTGTATGAG | 0.985 ± 0.029
172 | GCTGTATGGC | 1.01 ± 0.027
173 | GCTGTCATGA | 0.9853 ± 0.0074
174 | GCTGTGGTT | 0.9376 ± 0.00097
175 | GCTGTTACGG | 0.983 ± 0.016

Row | Sequence | switch fluorescence ratio
176 | GCTGTTGTCG | 0.974 ± 0.052
177 | GCTTAAGGGC | 0.956 ± 0.033
178 | GCTTACAGGA | 1.01 ± 0.033
179 | GCTTAGGATT | 1.01 ± 0.033
180 | GCTTATTAGT | 1 ± 0.0042
181 | GCTTCAGGGT | 0.989 ± 0.025
182 | GCTTCCGGGG | 1.27 ± 0.06
183 | GCTTCGAGGG | 0.968 ± 0.013
184 | GCTTCGGGGG | 1.06 ± 0.043
185 | GCTTCGTTGG | 1.17 ± 0.18
186 | GCTTCTGAGG | 1.07 ± 0.018
187 | GCTTCTGGAA | 1.06 ± 0.018
188 | GCTTCTGGTT | 0.988 ± 0.023
189 | GCTTGCACTA | 0.998 ± 0.015
190 | GCTTGCCGGT | 1 ± 0.037
191 | GCTTGCGATG | 1.01 ± 0.011
192 | GCTTGCTATT | 0.965 ± 0.021
193 | GCTTGCTTTT | 0.989 ± 0.022
194 | GCTTGGACGG | 1.02 ± 0.055
195 | GCTTGGATAA | 1.02 ± 0.032
196 | GCTTGGGATT | 0.977 ± 0.029
197 | GCTTGGTGCT | 1.05 ± 0.031
198 | GCTTGTGACG | 1.02 ± 0.058
199 | GCTTGTTTGT | 1.02 ± 0.024
200 | GCTTTAAGTA | 0.992 ± 0.044
